Residue numbers refer to the chain shown, from its start. Names may count otherwise.
B1: bsCD63N74Hxb12 (bispecific antibody, part only; not given: b12 control arm, constant regions, V domains shown, not shown: another chain or arm of the molecule; a dimerising Fc or GST)
VH: EVQLQQSGPELVKPGASVKMSCKASGYTFTSYVMHWVRQTPGQGLEWIGYITPYHDGTKYNEKFKGKATLTSDKSSSTAYMELSSLTSEDSAVYYCVGGDNYYYAMDYWGQGTSVTVSA
VL: NIMVTQSPSSLAVSAGEKVTMSCKSSQSVLYSSNQKNYLAWYQQKPGQSPKLLIYWASTRVSGVPDRFTGSGSGTDFTLTISRVQAEDLAVYYCHQYFSSFTFGSGTKLEIK
B2: bsCD63xb12-Duo3 (bispecific antibody, part only; not given: b12 control arm VH and VL, IgG1, V domains shown, part only)
VH: EVQLQQSGPELVKPGASVKMSCKASGYTFTSYVMHWVRQTPGQGLEWIGYITPYNDGTKYNEKFKGKATLTSDKSSSTAYMELSSLTSEDSAVYYCVGGDNYYYAMDYWGQGTSVTVSAA
VL: NIMVTQSPSSLAVSAGEKVTMSCKSSQSVLYSSNQKNYLAWYQQKPGQSPKLLIYWASTRVSGVPDRFTGSGSGTDFTLTISRVQAEDLAVYYCHQYFSSFTFGSGTKLEIKRT
B3: bsCD63N74Hxb12-Duo3 (bispecific antibody, part only; not given: b12 control arm, V domains shown, part only)
VH: B2 VH with N55H
VL: B2 VL
B4: bsCD63xb12-Duo3 with CD63 variant P72H (bispecific antibody, part only; not given: b12 control arm, V domains shown, part only)
VH: B2 VH with P53H
VL: B2 VL
B5: bsHER2xCD63-Duo3 with CD63 variant T71H (bispecific antibody, part only; not given: HER2 arm (IgG1-153) VH and VL, V domains shown, part only)
VH: B2 VH with T52H
VL: B2 VL
B6: bsCD63xb12-Duo3 with CD63 variant Y46 (bispecific antibody, part only; not given: b12 control arm VH and VL, V domains shown, part only)
VH: B2 VH with Y27H
VL: B2 VL
B7: bsCD63xb12-Duo3 with CD63 variant T71H (bispecific antibody, part only; not given: b12 control arm, V domains shown, part only)
VH: B2 VH with T52H
VL: B2 VL
B8: bsHER2xCD63-Duo3 with CD63 variant LY51H (bispecific antibody, part only; not given: HER2 arm (IgG1-153) VH and VL, V domains shown, part only)
VH: B2 VH
VL: B2 VL with Y31H
B9: bsCD63xb12-Duo3 with CD63 variant LS52 (bispecific antibody, part only; not given: b12 control arm VH and VL, V domains shown, part only)
VH: B2 VH
VL: B2 VL with S32H
B10: bsCD63xb12-Duo3 with CD63 variant Y127 (bispecific antibody, part only; not given: b12 control arm VH and VL, V domains shown, part only)
VH: B2 VH with Y108H
VL: B2 VL
B11: bsHER2xCD63-Duo3 with CD63 variant G76H (bispecific antibody, part only; not given: HER2 arm (IgG1-153) VH and VL, V domains shown, part only)
VH: B2 VH with G57H
VL: B2 VL
B12: bsHER2xCD63-Duo3 (bispecific antibody, part only; not given: HER2 arm, IgG1, V domains shown, part only)
VH: B2 VH
VL: B2 VL
B13: bsCD63xb12-Duo3 with CD63 variant LQ47 (bispecific antibody, part only; not given: b12 control arm, V domains shown, part only)
VH: B2 VH
VL: B2 VL with Q27H
B14: bsHER2xCD63-Duo3 with CD63 variant LV49H (bispecific antibody, part only; not given: HER2 arm (IgG1-153) VH and VL, V domains shown, part only)
VH: B2 VH
VL: B2 VL with V29H
B15: bsCD63xb12-Duo3 with CD63 variant LY51H (bispecific antibody, part only; not given: b12 control arm VH and VL, V domains shown, part only)
VH: B2 VH
VL: B2 VL with Y31H
B16: bsCD63xb12-Duo3 with CD63 variant G76H (bispecific antibody, part only; not given: b12 control arm VH and VL, V domains shown, part only)
VH: B2 VH with G57H
VL: B2 VL
B17: bsHER2xCD63-Duo3 with CD63 variant Y127 (bispecific antibody, part only; not given: HER2 arm (IgG1-153) VH and VL, V domains shown, part only)
VH: B2 VH with Y108H
VL: B2 VL
B18: bsHER2xCD63-Duo3 with CD63 variant LN54H (bispecific antibody, part only; not given: HER2 arm (IgG1-153) VH and VL, V domains shown, part only)
VH: B2 VH
VL: B2 VL with N34H
B19: bsHER2xCD63-Duo3 with CD63 variant LQ47 (bispecific antibody, part only; not given: HER2 arm, V domains shown, part only)
VH: B2 VH
VL: B2 VL with Q27H
B20: bsCD63xb12-Duo3 with CD63 variant LN54H (bispecific antibody, part only; not given: b12 control arm VH and VL, V domains shown, part only)
VH: B2 VH
VL: B2 VL with N34H
B21: bsCD63xb12-Duo3 with CD63 variant Y79H (bispecific antibody, part only; not given: b12 control arm, V domains shown, part only)
VH: B2 VH with Y60H
VL: B2 VL
B22: bsHER2xCD63N74H-Duo3 (bispecific antibody, part only; not given: HER2 arm, V domains shown, part only)
VH: B2 VH with N55H
VL: B2 VL
B23: bsHER2xCD63-Duo3 with CD63 variant Y46 (bispecific antibody, part only; not given: HER2 arm (IgG1-153) VH and VL, V domains shown, part only)
VH: B2 VH with Y27H
VL: B2 VL
B24: bsHER2xCD63-Duo3 with CD63 variant Y121H (bispecific antibody, part only; not given: HER2 arm, V domains shown, part only)
VH: B2 VH with Y102H
VL: B2 VL
B25: bsCD63xb12-Duo3 with CD63 variant LV49H (bispecific antibody, part only; not given: b12 control arm, V domains shown, part only)
VH: B2 VH
VL: B2 VL with V29H
B26: bsHER2xCD63-Duo3 with CD63 variant LS52 (bispecific antibody, part only; not given: HER2 arm (IgG1-153) VH and VL, V domains shown, part only)
VH: B2 VH
VL: B2 VL with S32H
B27: bsCD63xb12-Duo3 with CD63 variant Y121H (bispecific antibody, part only; not given: b12 control arm VH and VL, V domains shown, part only)
VH: B2 VH with Y102H
VL: B2 VL
B28: bsHER2xCD63-Duo3 with CD63 variant Y79H (bispecific antibody, part only; not given: HER2 arm (IgG1-153) VH and VL, V domains shown, part only)
VH: B2 VH with Y60H
VL: B2 VL
B29: bsHER2xCD63-Duo3 with CD63 variant P72H (bispecific antibody, part only; not given: HER2 arm (IgG1-153) VH and VL, V domains shown, part only)
VH: B2 VH with P53H
VL: B2 VL

molecular target: CD63 on cells (human) (UniProt P08962); assay: cell-based or functional assay
Sequence (P08962 2-238): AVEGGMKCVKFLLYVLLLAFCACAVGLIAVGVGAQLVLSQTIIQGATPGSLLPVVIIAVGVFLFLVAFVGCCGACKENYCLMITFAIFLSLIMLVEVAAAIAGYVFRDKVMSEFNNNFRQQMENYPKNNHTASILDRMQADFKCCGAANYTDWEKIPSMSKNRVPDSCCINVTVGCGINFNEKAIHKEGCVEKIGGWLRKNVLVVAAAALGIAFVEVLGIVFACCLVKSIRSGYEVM

lysosomal co-localization with LAMP1 in SK-OV-3 cells (confocal microscopy, 16 hours)	Binder	IC50 of cytotoxicity, Colo205 cells (CellTiter-GLO, 4 days)	IC50 of cytotoxicity, HCC1954 cells (CellTiter-GLO, 4 days)	IC50 of cytotoxicity, SK-OV-3 cells (CellTiter-GLO, 4 days)
10 fold lower	B1	–	–	–
–	B2	2.61 µg/mL	0.424 µg/mL	0.815 µg/mL
–	B3	3.93 µg/mL	1.35 µg/mL	1.99 µg/mL
10 fold lower	B4	10 µg/mL	0.92 µg/mL	1.72 µg/mL
–	B5	2.23 µg/mL	0.03 µg/mL	0.115 µg/mL
–	B6	5.64 µg/mL	0.9 µg/mL	1.37 µg/mL
–	B7	10 µg/mL	4.89 µg/mL	3.8 µg/mL
–	B8	10 µg/mL	0.069 µg/mL	0.207 µg/mL
–	B9	2.25 µg/mL	0.662 µg/mL	1.13 µg/mL
–	B10	1.89 µg/mL	0.664 µg/mL	1.08 µg/mL
–	B11	10 µg/mL	0.104 µg/mL	0.351 µg/mL
–	B12	0.416 µg/mL	0.009 µg/mL	0.017 µg/mL
–	B13	2.43 µg/mL	0.753 µg/mL	1.11 µg/mL
–	B14	10 µg/mL	0.065 µg/mL	0.314 µg/mL
–	B15	10 µg/mL	5.27 µg/mL	4.52 µg/mL
–	B16	1.42 µg/mL	10 µg/mL	3.06 µg/mL
–	B17	0.472 µg/mL	0.017 µg/mL	0.061 µg/mL
–	B18	1.69 µg/mL	0.013 µg/mL	0.021 µg/mL
–	B19	0.587 µg/mL	0.017 µg/mL	0.048 µg/mL
10 fold lower	B20	10 µg/mL	1.55 µg/mL	3.35 µg/mL
–	B21	3.41 µg/mL	0.42 µg/mL	0.93 µg/mL
–	B22	1.35 µg/mL	0.017 µg/mL	0.037 µg/mL
–	B23	0.754 µg/mL	0.016 µg/mL	0.045 µg/mL
–	B24	10 µg/mL	0.073 µg/mL	0.259 µg/mL
–	B25	10 µg/mL	1.65 µg/mL	1.4 µg/mL
–	B26	0.567 µg/mL	0.018 µg/mL	0.047 µg/mL
10 fold lower	B27	10 µg/mL	10 µg/mL	5.46 µg/mL
–	B28	0.432 µg/mL	0.008 µg/mL	0.021 µg/mL
–	B29	1.4 µg/mL	0.014 µg/mL	0.028 µg/mL

— US20190352423A1 (Genmab, published 2019)
